Data as given in patent US20150099705A1.

Molecular target: human Nav1.7 (sodium channel protein type 9 subunit alpha) (human) (UniProt Q15858)
Test: cell-based or functional assay

In the case of wild type Protoxin-II (peptide), the IC50, FLIPR assay is reported as 4 nM.
